# Where no end group is shown, it is not given here.
# Biological target: Kindlin-3 (full-length, C-terminal His6 tag removed, for NMR) (mouse, UniProt Q8K1B8 1-665)
# Experiment: NMR titration
# Kindlin-3 (full-length, C-terminal His6 tag removed, for NMR), sequence (Q8K1B8 whole entry): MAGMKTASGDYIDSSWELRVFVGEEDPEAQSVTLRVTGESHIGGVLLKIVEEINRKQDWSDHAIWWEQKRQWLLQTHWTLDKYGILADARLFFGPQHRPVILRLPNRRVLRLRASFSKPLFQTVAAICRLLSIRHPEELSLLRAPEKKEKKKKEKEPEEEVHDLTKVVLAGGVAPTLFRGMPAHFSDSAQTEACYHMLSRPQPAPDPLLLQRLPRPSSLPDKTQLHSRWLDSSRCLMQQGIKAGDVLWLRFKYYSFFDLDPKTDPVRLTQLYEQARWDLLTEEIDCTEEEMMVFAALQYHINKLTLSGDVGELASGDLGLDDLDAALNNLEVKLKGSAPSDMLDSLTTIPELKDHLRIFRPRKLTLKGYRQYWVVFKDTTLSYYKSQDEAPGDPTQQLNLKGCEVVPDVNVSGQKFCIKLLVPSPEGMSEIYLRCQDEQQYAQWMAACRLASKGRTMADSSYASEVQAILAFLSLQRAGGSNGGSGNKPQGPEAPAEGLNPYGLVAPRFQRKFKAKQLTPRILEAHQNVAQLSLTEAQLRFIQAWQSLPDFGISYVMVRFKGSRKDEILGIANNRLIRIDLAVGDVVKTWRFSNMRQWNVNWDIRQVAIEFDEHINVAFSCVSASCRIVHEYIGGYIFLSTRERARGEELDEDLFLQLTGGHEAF
row,Kd,Binder
1,~50 µM,"KLLMIIHDRREFAKFEKEKMNAKWDTGENPIYKSAVTTVVNPKYEGK (domain or fragment, UniProt P05556-1 752-798, looked up, also: uniformly 15N-labelled) [integrin β1A cytoplasmic tail]"
2,~50 µM,"KLLMIIHDRREFAKFEKEKMNAKWDTQENPIYKSPINNFKNPNYGRKAGL (domain or fragment, UniProt P05556-5 752-801, looked up, also: uniformly 15N-labelled) [integrin β1D cytoplasmic tail]"

# Reference: publication PMC3488048 (The Journal of Biological Chemistry, 2012)
